Assay results published in EP4818205A1 (Beijing Wisdomab Biotechnology Co., Ltd, dated 2026).
Numbering of substitutions follows the chain as printed. Like-named read-outs stand apart in the source and are kept apart here.

T1: recombinant protein His-fib-hTL1A (human)
T1 chain: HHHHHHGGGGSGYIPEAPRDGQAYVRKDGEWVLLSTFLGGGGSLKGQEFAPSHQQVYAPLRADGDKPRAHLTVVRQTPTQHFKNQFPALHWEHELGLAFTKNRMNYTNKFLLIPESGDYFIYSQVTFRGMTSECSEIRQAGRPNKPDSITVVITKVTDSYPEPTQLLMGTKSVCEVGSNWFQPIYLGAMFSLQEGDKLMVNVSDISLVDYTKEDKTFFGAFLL

T2: recombinant protein His-fib-rTL1A (rat)
T2 construct: also called rat TL1A
T2 chain: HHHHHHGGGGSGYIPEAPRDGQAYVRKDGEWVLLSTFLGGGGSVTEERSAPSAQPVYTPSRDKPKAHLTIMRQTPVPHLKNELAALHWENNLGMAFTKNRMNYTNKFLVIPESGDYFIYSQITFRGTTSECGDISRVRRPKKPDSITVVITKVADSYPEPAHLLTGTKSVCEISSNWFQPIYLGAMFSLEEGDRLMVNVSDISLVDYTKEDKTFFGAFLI

T3: recombinant protein His-fib-mfTL1A (Macaca fascicularis)
T3 construct: also called monkey TL1A; Macaca fascicularis TL1A
T3 chain: T1 chain with F82L, I121V

T4: recombinant protein His-fib-mTL1A (mouse)
T4 construct: also called mouse TL1A
T4 chain: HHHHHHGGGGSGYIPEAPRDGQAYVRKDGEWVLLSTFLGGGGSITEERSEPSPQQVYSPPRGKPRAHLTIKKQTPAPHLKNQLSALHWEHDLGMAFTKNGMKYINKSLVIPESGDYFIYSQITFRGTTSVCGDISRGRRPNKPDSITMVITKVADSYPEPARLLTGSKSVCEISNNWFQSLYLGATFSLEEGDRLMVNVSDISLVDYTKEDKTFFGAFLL

B1: anti-TL1A monoclonal antibody RVT-3101 (antibody, V domains shown)
VH: QVQLVQSGAEVKKPGASVKVSCKASGYDFTYYGISWVRQAPGQGLEWMGWISTYNGNTHYARMLQGRVTMTTDTSTRTAYMELRSLRSDDTAVYYCARENYYGSGAYRGGMDVWGQGTTVTVSS
VL: EIVLTQSPATLSLSPGERATLSCRASQSVSSYLAWYQQKPGQAPRLLIYDASNRATGIPARFSGSGSGTDFTLTISSLEPEDFAVYYCQQRSNWPWTFGQGTKVEIK
B2: anti-TL1A monoclonal antibody PRA023 (antibody, V domains shown)
VH: QVQLVQSGAEVKKPGASVKVSCKASGFDIQDTYMHWVKQRPGQGLEWMGRIDPASGHTKYDPKFQVRVTITRDTSTSTVYLELSSLRSEDTAVYYCARSGGLPDVWGQGTTVTVSS
VL: EIVLTQSPGTLSLSPGERATLSCRASSSVSYMYWYQQKPGQAPRPLIYATSNLASGIPDRFSGSGSGTDFTLTISRLEPEDFAVYYCQQWEGNPRTFGGGTKLEIK
B3: mouse anti-TL1A monoclonal antibody S4D3 (antibody, V domains shown)
VH: QVQLKESGSDLATPGASVKLSCKVSGYTFTKYDINWVRQRPEQGLEWIGWIFPGDGRTDYNEKFKGKATLTIDTSSSTAYMQLSRLTSEDSAVYFCARYGYALDYWGQGTSVTVSS
VL: DVVMTQTPLSLPVSLGDQASISCRSSQNIVHSNGDTYLEWFLQKPGQSPKLLIYKVSNRFSGVPDRFSGSGSGTDFTLKISRVEAEDLGVYYCFQGSHFPYTFGGGTKLEMKR
B4: mouse anti-TL1A monoclonal antibody S9H9 (antibody, V domains shown)
VH: QVQLKQSGAELVRPGTSVKISCKASGYAFTNYWLGWIKQRPGHGLEWIGDIHPGRGNIFYNEKFKGKATLTADKSSSTAYMQLSSLTSEDSAVYFCAEGYDTFDYWGQGTTLTVSA
VL: DIVMTQSHKFMSTSVGDRVSITCKASQDVSTAVAWYQQKPGQSPKLLIYSASYRYTGVPDRFTGSGSGTDFTFTISSVQAEDLAVYYCQQHYSTPWTFGGGTKLEMKR
B5: mouse anti-TL1A monoclonal antibody S7B11 (antibody, V domains shown)
VH: B4 VH with Q3K, K5Q, A9G, F59Y, A116S
VL: DIVMTQSPSYLAASPGETITINCRASKSISKYLAWYQEKPGKTNKLLIYSGSTLQSGIPSRFSGSGSGTDFTLTISSLEPEDFAMYYCQQHNEYPYTFGGGTKLEIKR

How the values were obtained:
[1] = target: T1, recombinant protein His-fib-hTL1A; test: cell-based or functional assay
[2] = target: T1, recombinant protein His-fib-hTL1A; test: SPR, Biacore T200; antibody captured by anti-human IgG (Fc), TL1A as analyte; 1:1 model
[3] = target: T1, recombinant protein His-fib-hTL1A; test: as above
[4] = target: T2, recombinant protein His-fib-rTL1A; test: as above
[5] = target: T3, recombinant protein His-fib-mfTL1A; test: as above
[6] = target: T4, recombinant protein His-fib-mTL1A; test: as above
[7] = target: T3, recombinant protein His-fib-mfTL1A; test: as above
[8] = target: T4, recombinant protein His-fib-mTL1A; test: as above
[9] = target: T1, recombinant protein His-fib-hTL1A; test: cell-based or functional assay
[10] = target: T1, recombinant protein His-fib-hTL1A; test: cell-based or functional assay
[11] = target: T1, recombinant protein His-fib-hTL1A; test: cell-based or functional assay
[12] = target: T1, recombinant protein His-fib-hTL1A; test: cell-based or functional assay
[13] = target: T4, recombinant protein His-fib-mTL1A; test: SPR, Biacore T200; antibody captured by anti-human IgG (Fc), TL1A as analyte
[14] = target: T2, recombinant protein His-fib-rTL1A; test: as above

Binder	IC50 of inhibition of caspase-3/7 activation in TL1A-stimulated TF-1 cells [1]	Kd [2]	koff [2]	kon [2]	Kd [3]	koff [3]	kon [3]	Kd [5]	koff [5]	kon [5]	Kd [7]	koff [7]	kon [7]	Kd [8]	koff [8]	kon [8]	IC50 of inhibition of caspase activation in TL1A-stimulated TF-1 cells [9]	IC50 of inhibition of NF-kB activation in TL1A-stimulated 293T-hDR3-NF-kB-RE-luci cells [10]	IC50 of inhibition of NF-kB activation in TL1A-stimulated 293T-hDR3-NF-kB-RE-luci cells [11]	IC50 of inhibition of interferon-gamma secretion by TL1A-stimulated PBMCs [12]	further results
B1	3.13 nM	0.144 nM	0.000102 s⁻¹	706000 M⁻¹ s⁻¹	0.154 nM	0.0001 s⁻¹	652000 M⁻¹ s⁻¹	0.0275 nM	4.51e-05 s⁻¹	1.64e+06 M⁻¹ s⁻¹	0.05 nM	6.7e-05 s⁻¹	1.34e+06 M⁻¹ s⁻¹	0.0482 nM	4.36e-05 s⁻¹	904000 M⁻¹ s⁻¹	3.46 nM	1.28 nM	1.08 nM	13.6 nM	Kd [4]: 0.434 nM; koff [4]: 0.000424 s⁻¹; kon [4]: 978000 M⁻¹ s⁻¹; Kd [6]: 0.0775 nM; koff [6]: 5.92e-05 s⁻¹; kon [6]: 764000 M⁻¹ s⁻¹
B2	–	0.355 nM	0.000169 s⁻¹	476000 M⁻¹ s⁻¹	0.355 nM	0.000169 s⁻¹	476000 M⁻¹ s⁻¹	0.0802 nM	9.01e-05 s⁻¹	1.12e+06 M⁻¹ s⁻¹	0.0802 nM	9.01e-05 s⁻¹	1.12e+06 M⁻¹ s⁻¹	–	–	–	6.52 nM	–	2.81 nM	6.54 nM	binding result [13]: no binding; binding result [14]: no binding
B3	3.05 nM	–	–	–	0.247 nM	0.000131 s⁻¹	532000 M⁻¹ s⁻¹	0.0489 nM	6.31e-05 s⁻¹	1.29e+06 M⁻¹ s⁻¹	–	–	–	–	–	–	–	1.13 nM	–	–	binding result [13]: no binding
B4	2.69 nM	–	–	–	0.0374 nM	0.000501 s⁻¹	1.34e+07 M⁻¹ s⁻¹	0.0603 nM	0.000175 s⁻¹	2.9e+06 M⁻¹ s⁻¹	–	–	–	37.2 nM	0.00255 s⁻¹	68600 M⁻¹ s⁻¹	–	1.28 nM	–	–	–
B5	2.69 nM	–	–	–	0.234 nM	0.00011 s⁻¹	470000 M⁻¹ s⁻¹	0.052 nM	6.93e-05 s⁻¹	1.32e+06 M⁻¹ s⁻¹	–	–	–	53.5 nM	0.00366 s⁻¹	68300 M⁻¹ s⁻¹	–	1.35 nM	–	–	–
